Experimental data reported in US10597674B2, “HPPD variants and methods of use” (BASF Agricultural Solutions Seed, US LLC, priority 2015, dated 2020).

B1: 45 (protein)
chain: MADLYENPMGLMGFEFIEFASPTPGTLEPIFEIMGFTKVATHRSKNVHLYRQGEINLILNNEPNSIASYFAAEHGPSVCGMAFRVKDSQKAYNRALELGAQPIHIDTGPMELNLPAIKGIGGAPLYLIDRFGEGSSIYDIDFVYLEGVERNPVGAGLKVIDHLTHNVYRGRMVYWANFYEKLFNFREARYFDIKGEYTGLTSKAMSAPDGMIRIPLNEESSKGAGQIEEFLMQFNGEGIQHVAFLTDDLVKTWDALKKIGMRFMTAPGDEYYEMLEGRLPDHGEPVDQLQARGILLDGSSVEGDKRLLLQIFSERLMGPVFFEFIQRKGDDGFGPDSFKVLFESVERDQVRRGVLTAD
modifications: mutant HPPD polypeptide
B2: 38 (protein)
chain: MADLYENPMGLMGFEFIEFASPTPGTLEPIFEIMGFTKVATHRSKNVHLYRQGEINLILNNEPNSIASYFAAEHGPSVCGMAFRVKDSQKAYNRALELGAQPIHIDTGPMELNLPAIKGIGGAPLYLIDRFGEGSSIYDIDFVYLEGVERNPVGAGLKVIDHLTHNVYRGRMVYWANFYEKLFNFREARYFDIKGEYTGLTSKAMSAPDGMIRIPLNEESSKGAGQIEEFLMQFNGEGIQHVAFLTDDLVKTWDALKKIGMRFMTAPGDEYYEMLEGRLPDHGEPVDQLQARGILLDGSSVEGDKRLLLQIFSETLMGPVFFEFIQRKGVDGFGPDSFKVLFESVERDQVRRGVLTAD
modifications: mutant HPPD polypeptide
B3: 48 (protein)
chain: MADLYENPMGLMGFEFIEFASPTPGTLEPIFEIMGFTKVATHRSKNVHLYRQGEINLILNNEPNSIASYFAAEHGPSVCGMAFRVKDSQKAYNRALELGAQPIHIDTGPMELNLPAIKGIGGAPLYLIDRFGEGSSIYDIDFVYLEGVERNPVGAGLKVIDHLTHNVYRGRMVYWANFYEKLFNFREARYFDIKGEYTGLTSKAMSAPDGMIRIPLNEESSKGAGQIEEFLMQFNGEGIQHVAFLTDDLVKTWDALKKIGMRFMTAPGDEYYEMLEGRLPDHGEPVDQLQARGILLDGSSVEGDKRLLLQIFSETLMGPVFFEFIQRKGDHGFGPDSFKVLFESVERDQVRRGVLTAD
modifications: mutant HPPD polypeptide
B4: 50 (protein)
chain: MADLYENPMGLMGFEFIEFASPTPGTLEPIFEIMGFTKVATHRSKNVHLYRQGEINLILNNEPNSIASYFAAEHGPSVCGMAFRVKDSQKAYNRALELGAQPIHIDTGPMELNLPAIKGIGGAPLYLIDRFGEGSSIYDIDFVYLEGVERNPVGAGLKVIDHLTHNVYRGRMVYWANFYEKLFNFREARYFDIKGEYTGLTSKAMSAPDGMIRIPLNEESSKGAGQIEEFLMQFNGEGIQHVAFLTDDLVKTWDALKKIGMRFMTAPGDEYYEMLEGRLPDHGEPVDQLQARGILLDGSSVEGDKRLLLQIFSETLMGPVFFEFIQRKGDPGFGPDSFKVLFESVERDQVRRGVLTAD
modifications: mutant HPPD polypeptide
B5: SEQ ID NO: 22: mutant HPPD polypeptide: E335P G336H N337S A340V (protein)
chain: MADLYENPMGLMGFEFIEFASPTPGTLEPIFEIMGFTKVATHRSKNVHLYRQGEINLILNNEPNSIASYFAAEHGPSVCGMAFRVKDSQKAYNRALELGAQPIHIDTGPMELNLPAIKGIGGAPLYLIDRFGEGSSIYDIDFVYLEGVERNPVGAGLKVIDHLTHNVYRGRMVYWANFYEKLFNFREARYFDIKGEYTGLTSKAMSAPDGMIRIPLNEESSKGAGQIEEFLMQFNGEGIQHVAFLTDDLVKTWDALKKIGMRFMTAPPDTYYEMLEGRLPDHGEPVDQLQARGILLDGSSVEGDKRLLLQIFSETLMGPVFFEFIQRKGDDGFGPHSFKVLFESIERDQVRRGVLTAD
modifications: mutant HPPD polypeptide
notes: mutant HPPD polypeptide: E335P G336H N337S A340V
B6: SEQ ID NO: 101: mutant HPPD polypeptide: M264L P268G T270E T315R E335P G336D N337S A340V S344Q I345M (protein)
chain: MADLYENPMGLMGFEFIEFASPTPGTLEPIFEIMGFTKVATHRSKNVHLYRQGEINLILNNEPNSIASYFAAEHGPSVCGMAFRVKDSQKAYNRALELGAQPIHIDTGPMELNLPAIKGIGGAPLYLIDRFGEGSSIYDIDFVYLEGVERNPVGAGLKVIDHLTHNVYRGRMVYWANFYEKLFNFREARYFDIKGEYTGLTSKAMSAPDGMIRIPLNEESSKGAGQIEEFLMQFNGEGIQHVAFLTDDLVKTWDALKKIGMRFLTAPGDEYYEMLEGRLPDHGEPVDQLQARGILLDGSSVEGDKRLLLQIFSERLMGPVFFEFIQRKGDDGFGPDSFKVLFEQMERDQVRRGVLTAD
modifications: mutant HPPD polypeptide
notes: mutant HPPD polypeptide: M264L P268G T270E T315R E335P G336D N337S A340V S344Q I345M
B7: SEQ ID NO: 105: mutant HPPD polypeptide: R213K M264L P268G T270E E335P G336H N337S A340R S344Q I345M (protein)
chain: MADLYENPMGLMGFEFIEFASPTPGTLEPIFEIMGFTKVATHRSKNVHLYRQGEINLILNNEPNSIASYFAAEHGPSVCGMAFRVKDSQKAYNRALELGAQPIHIDTGPMELNLPAIKGIGGAPLYLIDRFGEGSSIYDIDFVYLEGVERNPVGAGLKVIDHLTHNVYRGRMVYWANFYEKLFNFREARYFDIKGEYTGLTSKAMSAPDGMIKIPLNEESSKGAGQIEEFLMQFNGEGIQHVAFLTDDLVKTWDALKKIGMRFLTAPGDEYYEMLEGRLPDHGEPVDQLQARGILLDGSSVEGDKRLLLQIFSETLMGPVFFEFIQRKGDDGFGPHSFKRLFEQMERDQVRRGVLTAD
modifications: mutant HPPD polypeptide
notes: mutant HPPD polypeptide: R213K M264L P268G T270E E335P G336H N337S A340R S344Q I345M
B8: SEQ ID NO: 8: mutant HPPD polypeptide: E335P G336D N337S A340V (protein)
chain: MADLYENPMGLMGFEFIEFASPTPGTLEPIFEIMGFTKVATHRSKNVHLYRQGEINLILNNEPNSIASYFAAEHGPSVCGMAFRVKDSQKAYNRALELGAQPIHIDTGPMELNLPAIKGIGGAPLYLIDRFGEGSSIYDIDFVYLEGVERNPVGAGLKVIDHLTHNVYRGRMVYWANFYEKLFNFREARYFDIKGEYTGLTSKAMSAPDGMIRIPLNEESSKGAGQIEEFLMQFNGEGIQHVAFLTDDLVKTWDALKKIGMRFMTAPPDTYYEMLEGRLPDHGEPVDQLQARGILLDGSSVEGDKRLLLQIFSETLMGPVFFEFIQRKGDDGFGPDSFKVLFESIERDQVRRGVLTAD
modifications: mutant HPPD polypeptide
notes: mutant HPPD polypeptide: E335P G336D N337S A340V

Experiments:
[1] = test system: HPPD polypeptides (wild-type SEQ ID NO:1 and mutants); conditions: low substrate concentration; for Residual activity: kapp in presence of 50 μM Cmpd. 1, normalised to kapp without inhibitor; for Residual turnover: total change in signal in presence of 50 μM Cmpd. 1, normalised to that without inhibitor
Experimental: For the generation of crude HPPD polypeptide extract in micro titer plates (MTP) for the determination of residual activity in inhibition assays, cells were grown in 40 or 150 μl LB medium containing 1% Glucose (Merck, Darmstadt, Germany) and 100 μg/ml ampicillin in a standard 96 well plate (Thermo Fisher Scientific, Waltham, USA) incubated for about 18 h in a humidity incubator at 37° C.
30 μl of this starter culture were added to 600 μl LB medium containing 100 μg/ml ampicillin and 150 mM Hepes (Merck, Darmstadt, Germany) as inoculum for the expression culture in 96 well plates (2 ml deep wells; HJ Bioanalytik, Erkelenz, Germany) The plates were sealed by an aluminium foil, and cells were incubated for 5 h at 37° C. on a plate shaker at 750 rpm. The expression was induced by addition of IPTG in a final concentration of 1 mM followed by further sealed incubation for about 18 h at 30° C. on a plate shaker at 750 rpm.
Cells were harvested by centrifugation at 4° C., 2500 g for 15 min discarding the supernatant. Cell pellets were stored at −80° C. and lysed in 250 μl 1× BugBuster® (Merck, Darmstadt, Germany) in 140 mM Tris (pH 7.8), with 1:25000 diluted BNase® (Qiagen, Hilden, Germany) by incubation of the resuspended cells for 30 min at 4° C. and 1000 rpm. Lysates were clarified by centrifugation for 15 min at 4° C., 2500 g, and 150 μl supernatant were transferred in standard 96 well plate (Thermo Fisher Scientific, Waltham, USA) for subsequent testing in quadruplets.
The activity of HPPD polypeptides was determined in absence or presence of HPPD inhibitors using the coupled HPPD activity assay (FIG. 1).
For the determination of the residual activity, the apparent kinetic constant (kapp) of the determined substrate conversion was measured as kinetic changes in absorbance at 320 nm in a coupled assay, in that homogentisate (HGA) formed by HPPD from HPP is directly converted into the well absorbing molecule maleylacetoacetate (MAA) by a second enzyme homogentisate dioxygenase (HGD), applied in excess uniformly in all assays (see FIG. 1). The measurements were performed in 384 micro titer plates (Greiner Bio-One GmbH, Frickenhausen, Germany) by plate readers (Tecan infinite M1000 or M1000PRO, Tecan, Männedorf, Switzerland). The kcat/kM ratio of an enzymatic activity is proportional to the apparent kinetic constant kapp and is proportional to kcat/kM*[E] ([E]=enzyme concentration). […] As both kapp measurements in the presence and absence of inhibitor were performed by use of the identical enzyme sample, crude or purified, and thereby at the same enzyme concentration, the enzyme concentration eliminates from the calculation of residual activity and the ratio of both kapp directly indicates the change of kM due to the inhibition.

[2] = test system: transgenic soybean T0 events; assay: Additional greenhouse trials of T0 soybean events, leaf damage score 0-100 as percentiles; type: in vivo; conditions: Cmpd. 1 300 g AI/ha, five days; for leaf damage score, Interquartile range: 75th minus 25th percentile; for leaf damage score, 25th percentile: scale 0 (no damage) to 100 (complete bleaching); for leaf damage score, 75th percentile / leaf damage score, 90th percentile / leaf damage score, Median: scale 0-100
From the text: In additional greenhouse trials, 21 to 94 independent T0 soybean events per construct containing an exemplary mutant HPPD polypeptide were sprayed with the HPPD inhibitor herbicide Cmpd. […] Five days after the application, the leaf damaged area due to the HPPD inhibitor herbicide is scored in a scale from 0 (no damage) to 100 (complete bleaching). Under those conditions, the wild-type plants were completely bleached and their damage scores were in the 95-100 range.
Table 9 presents the distribution of the HPPD inhibitor herbicide damage score data as percentile for exemplary mutant HPPD inhibitor herbicide tolerant polypeptides (SEQ ID NOs). The percentiles normalize ranks of the damage score from an individual plant in a population. […] The median is the 50th percentile. Half the values had higher damage scores; half had lower damage scores. […] The difference between the 75th and 25th percentile is called the interquartile range and a marker to quantify scattering in the population. All constructs had only one single cassette insertion in the soybean genome.
In Table 9, the constructs were ranked based on injury scores according to the 75th percentile, from smallest to highest score. All exemplary HPPD polypeptide variants are better in all percentile analyses than the prior art mutant HPPD polypeptide (WO2014/043435) corresponding to SEQ ID NO:2 in this invention. The scoring of the prior art mutant HPPD polypeptide (WO2014/043435) corresponding to SEQ ID NO:2 in this invention is listed in the bottom row of Table 9.

Row | Molecule | Residual activity [1] | Residual turnover [1] | leaf damage score, Interquartile range [2] | leaf damage score, 25th percentile [2] | leaf damage score, 75th percentile [2] | leaf damage score, 90th percentile [2] | leaf damage score, Median [2]
1 | B1 | 39% | 68% | – | – | – | – | –
2 | B2 | 78% | 94% | – | – | – | – | –
3 | B3 | 47% | 74% | – | – | – | – | –
4 | B4 | 46% | 80% | – | – | – | – | –
5 | B5 | – | – | 5.0 | 10.0 | 15.0 | 34.5 | 10.0
6 | B6 | – | – | 10.0 | 5.0 | 15.0 | 49.0 | 10.0
7 | B7 | – | – | 10.0 | 5.0 | 15.0 | 70.0 | 10.0
8 | B8 | – | – | 6.3 | 10.0 | 16.3 | 38.5 | 10.0
